{"source": "the supplement of paper PMC9170038", "system": "K4 kissing-loop RNA reporter", "test": "apparent KD of K4 kissing-loop reporter; higher = weaker reporter binding", "conditions": "Eterna round: R107", "experimental": "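RNA-MaP round R107: designed RNA switches with theophylline, tryptophan, arginine or FMN aptamers are transcribed on-chip within common flanks. They are titrated with a labelled K4 kissing-loop RNA reporter in RNA-MaP buffer (100 mM Tris pH 7.5, 80 mM KCl, 4 mM MgCl2), without ligand or with the indicated ligand. Median apparent KD per design.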", "key": {"[1]": {"conditions": "input ligand: theophylline 20 uM"}, "[2]": {"conditions": "input ligand: tryptophan 2.4 mM"}}}
{"sequence": "ACGCUGUGAAUAACACAGCGAAUAAAUUCGCGAGGACCGGUACGGCCGCCACUCGCUAACUGCGAGUGAUGUUCGAUAAUAAAAU [Mat - Mod of OpenEnded 3 - D13]", "values": [{"measurement": "apparent KD of K4 kissing-loop reporter", "setting": "input ligand: FMN 200 uM", "result": 176, "unit": "nM"}, {"measurement": "apparent KD of K4 kissing-loop reporter", "setting": "input ligand: arginine 13.2 mM", "result": 80.8, "unit": "nM"}, {"measurement": "apparent KD of K4 kissing-loop reporter", "setting": "input ligand: none", "result": 172, "unit": "nM"}, {"measurement": "apparent KD of K4 kissing-loop reporter", "setting": "[1]", "result": 201, "unit": "nM"}, {"measurement": "apparent KD of K4 kissing-loop reporter", "setting": "[2]", "result": 91.1, "unit": "nM"}]}
{"sequence": "ACGGAGUGAUGUUCCGGCCUCCCAGCAGAUACCAGCAGUCGCGAUUGCCCUUGGCAGCUGUCCGCGGCAUCCACUUGUAGCGGUA [theeternabot_exclusion_KL_Theo_A_12]", "values": [{"measurement": "apparent KD of K4 kissing-loop reporter", "setting": "input ligand: FMN 200 uM", "result": 223, "unit": "nM"}, {"measurement": "apparent KD of K4 kissing-loop reporter", "setting": "input ligand: arginine 13.2 mM", "result": 173, "unit": "nM"}, {"measurement": "apparent KD of K4 kissing-loop reporter", "setting": "input ligand: none", "result": 204, "unit": "nM"}, {"measurement": "apparent KD of K4 kissing-loop reporter", "setting": "[1]", "result": 222, "unit": "nM"}, {"measurement": "apparent KD of K4 kissing-loop reporter", "setting": "[2]", "result": 197, "unit": "nM"}]}
{"sequence": "ACGUAGUUCUAGGAUACCAGCCAAGGACGCCAGGACAAAAGUCCUGGCGCCAGUGAUGUUGGCCCUUGGCAGCCUAGAACUACGA [Omei KL Theo B Exc B v5]", "values": [{"measurement": "apparent KD of K4 kissing-loop reporter", "setting": "input ligand: FMN 200 uM", "result": 197, "unit": "nM"}, {"measurement": "apparent KD of K4 kissing-loop reporter", "setting": "input ligand: arginine 13.2 mM", "result": 168, "unit": "nM"}, {"measurement": "apparent KD of K4 kissing-loop reporter", "setting": "input ligand: none", "result": 182, "unit": "nM"}, {"measurement": "apparent KD of K4 kissing-loop reporter", "setting": "[1]", "result": 205, "unit": "nM"}, {"measurement": "apparent KD of K4 kissing-loop reporter", "setting": "[2]", "result": 176, "unit": "nM"}]}
{"sequence": "ACGUAUAUCAGAGGAUAUCGUAUUAAUAUUUUAUCUAUCUAUAUAUGCAGUGAUGUUGCAAUAAUUCGAGAAGGCUGAUUUACGA [JR_ExcFMNB_Sub010]", "values": [{"measurement": "apparent KD of K4 kissing-loop reporter", "setting": "input ligand: FMN 200 uM", "result": 112, "unit": "nM"}, {"measurement": "apparent KD of K4 kissing-loop reporter", "setting": "input ligand: arginine 13.2 mM", "result": 124, "unit": "nM"}, {"measurement": "apparent KD of K4 kissing-loop reporter", "setting": "input ligand: none", "result": 91.6, "unit": "nM"}, {"measurement": "apparent KD of K4 kissing-loop reporter", "setting": "[1]", "result": 133, "unit": "nM"}, {"measurement": "apparent KD of K4 kissing-loop reporter", "setting": "[2]", "result": 87.3, "unit": "nM"}]}
{"sequence": "ACGUCAUCAAAAGGAUAUGCAUCGAAGUGAUGUUUCGUCAUAUCAGUCUGAUUGCAGCAAUUAGGAGCAGAAGGUUUAGUCCGGU [theeternabot_exclusion_KL_FMN_B_11]", "values": [{"measurement": "apparent KD of K4 kissing-loop reporter", "setting": "input ligand: FMN 200 uM", "result": 91.6, "unit": "nM"}, {"measurement": "apparent KD of K4 kissing-loop reporter", "setting": "input ligand: arginine 13.2 mM", "result": 80.7, "unit": "nM"}, {"measurement": "apparent KD of K4 kissing-loop reporter", "setting": "input ligand: none", "result": 91.9, "unit": "nM"}, {"measurement": "apparent KD of K4 kissing-loop reporter", "setting": "[1]", "result": 77.6, "unit": "nM"}, {"measurement": "apparent KD of K4 kissing-loop reporter", "setting": "[2]", "result": 83.1, "unit": "nM"}]}
{"sequence": "ACGUGUCACUGAAGGAGCGUCUACCGAAUACGAGUGAUGUUGGUAUACCACUUAUAUAGUGGACAGGUAGGUCGCAGUGAUACGU [Arg B Ex t4]", "values": [{"measurement": "apparent KD of K4 kissing-loop reporter", "setting": "input ligand: FMN 200 uM", "result": 987, "unit": "nM"}, {"measurement": "apparent KD of K4 kissing-loop reporter", "setting": "input ligand: arginine 13.2 mM", "result": 769, "unit": "nM"}, {"measurement": "apparent KD of K4 kissing-loop reporter", "setting": "input ligand: none", "result": 938, "unit": "nM"}, {"measurement": "apparent KD of K4 kissing-loop reporter", "setting": "[1]", "result": 757, "unit": "nM"}, {"measurement": "apparent KD of K4 kissing-loop reporter", "setting": "[2]", "result": 837, "unit": "nM"}]}
{"sequence": "ACUCUUGCGUAUGAUACCAGCUUGUACCGCCACAUAUAUUCUAAGAGUUGAGUGAUGUUUAGCCCUUGGCAGCAUACUUGUGCGU [theeternabot_exclusion_KL_Theo_B_42]", "values": [{"measurement": "apparent KD of K4 kissing-loop reporter", "setting": "input ligand: FMN 200 uM", "result": 706, "unit": "nM"}, {"measurement": "apparent KD of K4 kissing-loop reporter", "setting": "input ligand: arginine 13.2 mM", "result": 546, "unit": "nM"}, {"measurement": "apparent KD of K4 kissing-loop reporter", "setting": "input ligand: none", "result": 778, "unit": "nM"}, {"measurement": "apparent KD of K4 kissing-loop reporter", "setting": "[1]", "result": 606, "unit": "nM"}, {"measurement": "apparent KD of K4 kissing-loop reporter", "setting": "[2]", "result": 702, "unit": "nM"}]}
{"sequence": "ACUUAGAAUGAAGGAUAUUGGUUACGAGGGCUAACCAAAACGGAUCACUUGUCCAGUGAUGUUGUCCAAGAAGGUCACGUUAAAC [theeternabot_exclusion_KL_FMN_B_44]", "values": [{"measurement": "apparent KD of K4 kissing-loop reporter", "setting": "input ligand: FMN 200 uM", "result": 776, "unit": "nM"}, {"measurement": "apparent KD of K4 kissing-loop reporter", "setting": "input ligand: arginine 13.2 mM", "result": 665, "unit": "nM"}, {"measurement": "apparent KD of K4 kissing-loop reporter", "setting": "input ligand: none", "result": 868, "unit": "nM"}, {"measurement": "apparent KD of K4 kissing-loop reporter", "setting": "[1]", "result": 492, "unit": "nM"}, {"measurement": "apparent KD of K4 kissing-loop reporter", "setting": "[2]", "result": 576, "unit": "nM"}]}
